From article PMC4253074 (Journal of molecular biology, 2014) come the findings set out here.

Substitutions are numbered along the chain they refer to.

Holding throughout (assay): cross-linking
The target of assay [1] is PDE6 catalytic dimer (Pαβ) (bovine, UniProt P11541 1-859; P23439 1-853).
The target in assay [2] is T1, PDE6 β-subunit (Pβ), catalytic subunit of bovine rod photoreceptor phosphodiesterase (bovine, UniProt P23439 1-853).
T1 sequence (looked up): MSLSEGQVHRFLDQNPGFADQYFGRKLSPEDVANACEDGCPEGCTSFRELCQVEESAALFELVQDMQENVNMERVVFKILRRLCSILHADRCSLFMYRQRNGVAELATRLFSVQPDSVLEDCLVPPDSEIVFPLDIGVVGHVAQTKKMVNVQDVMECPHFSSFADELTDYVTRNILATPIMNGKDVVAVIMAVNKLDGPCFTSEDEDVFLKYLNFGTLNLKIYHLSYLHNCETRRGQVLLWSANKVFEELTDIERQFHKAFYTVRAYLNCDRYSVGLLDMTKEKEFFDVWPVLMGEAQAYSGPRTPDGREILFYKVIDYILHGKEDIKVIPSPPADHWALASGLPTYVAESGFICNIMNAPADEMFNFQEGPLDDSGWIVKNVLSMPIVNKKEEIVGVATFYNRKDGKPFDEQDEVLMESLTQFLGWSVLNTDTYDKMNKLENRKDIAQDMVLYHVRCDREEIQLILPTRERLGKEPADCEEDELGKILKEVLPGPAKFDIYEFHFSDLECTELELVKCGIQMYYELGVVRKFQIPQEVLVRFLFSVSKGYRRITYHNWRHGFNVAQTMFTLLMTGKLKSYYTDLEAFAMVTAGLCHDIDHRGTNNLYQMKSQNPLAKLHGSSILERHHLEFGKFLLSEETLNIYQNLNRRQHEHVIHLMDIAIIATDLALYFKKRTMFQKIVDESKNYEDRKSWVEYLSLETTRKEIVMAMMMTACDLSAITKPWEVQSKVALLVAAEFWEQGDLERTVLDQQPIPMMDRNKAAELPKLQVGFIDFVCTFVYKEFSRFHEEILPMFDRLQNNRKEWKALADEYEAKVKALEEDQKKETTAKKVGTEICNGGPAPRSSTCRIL

For assay [3], the target named is T2, PDE6 α-subunit (Pα), catalytic subunit of bovine rod photoreceptor phosphodiesterase (bovine, UniProt P11541 1-859).
T2 sequence (looked up): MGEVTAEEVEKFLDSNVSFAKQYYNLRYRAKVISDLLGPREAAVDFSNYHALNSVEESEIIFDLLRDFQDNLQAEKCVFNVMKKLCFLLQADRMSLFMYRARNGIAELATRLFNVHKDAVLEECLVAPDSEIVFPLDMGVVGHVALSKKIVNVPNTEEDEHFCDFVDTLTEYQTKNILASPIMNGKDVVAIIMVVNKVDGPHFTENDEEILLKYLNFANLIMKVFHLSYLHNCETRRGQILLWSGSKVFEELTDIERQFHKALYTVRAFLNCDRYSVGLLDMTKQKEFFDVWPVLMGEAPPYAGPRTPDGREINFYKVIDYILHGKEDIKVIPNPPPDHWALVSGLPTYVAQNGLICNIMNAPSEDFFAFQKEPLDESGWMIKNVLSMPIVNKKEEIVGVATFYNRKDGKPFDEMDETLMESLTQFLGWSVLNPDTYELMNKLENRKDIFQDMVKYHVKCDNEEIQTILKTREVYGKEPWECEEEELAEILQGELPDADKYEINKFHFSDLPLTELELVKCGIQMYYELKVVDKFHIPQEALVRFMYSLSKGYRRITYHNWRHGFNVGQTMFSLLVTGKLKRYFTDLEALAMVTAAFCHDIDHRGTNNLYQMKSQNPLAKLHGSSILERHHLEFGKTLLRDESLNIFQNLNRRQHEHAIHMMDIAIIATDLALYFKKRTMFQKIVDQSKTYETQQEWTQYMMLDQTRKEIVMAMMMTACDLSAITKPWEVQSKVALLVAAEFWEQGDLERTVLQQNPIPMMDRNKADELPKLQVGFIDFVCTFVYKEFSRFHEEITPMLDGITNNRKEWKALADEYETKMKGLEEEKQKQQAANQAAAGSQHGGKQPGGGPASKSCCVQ

B1: PDE6 inhibitory γ-subunit (Pγ), endogenous, in the purified PDE6 holoenzyme (natural protein, bovine, UniProt P04972 1-87, looked up)
chain: MNLEPPKAEIRSATRVMGGPVTPRKGPPKFKQRQTRQFKSKPPKKGVQGFGDDIPGMEGLGTDITVICPWEAFNHLELHELAQYGII
For the molecule B1, the binding result in assay [1] is “binds”.

B2: wild-type Pγ, recombinant (Pγ 1–87) (natural protein, bovine, UniProt P04972 1-87, looked up)
chain: B1 chain
As for B2, in assay [1], the binding result is “binds”.

B3: Pγ 30C-MBP (natural protein, bovine, UniProt P04972 1-87, looked up)
chain: B1 chain with F30C, C68S
modifications: 4-(N-maleimido)benzophenone (MBP) on Cys30
B3: the binding result in assay [2] is recorded as “binds”.

B4: Pγ 73C-MBP (natural protein, bovine, UniProt P04972 1-87, looked up)
chain: B1 chain with C68S, F73C
modifications: 4-(N-maleimido)benzophenone (MBP) on Cys73
Regarding B4, the binding result in assay [3] and in assay [2] was “binds” each time.
